# In paper PMC2891668 (Molecular cancer therapeutics, 2009):
# B1: NM23-H2 R88A mutant (enzyme, human)
# chain: ANLERTFIAIKPDGVQRGLVGEIIKRFEQKGFRLVAMKFLRASEEHLKQHYIDLKDRPFFPGLVKYMNSGPVVAMVWEGLNVVKTGAVMLGETNPADSKPGTIRGDFCIQVGRNIIHGSDSVKSAEKEISLWFKPEELVDYKSCAHDWVYE
# Target: the molecule itself
# Assay: crystal structure
protein,measurement,value
B1,stoichiometry N,6
